According to IntAct's records for PubMed 11964151:

B1: Galactose/lactose metabolism regulatory protein GAL80 (Saccharomyces cerevisiae), P04387 (parent)
chain: MDYNKRSSVSTVPNAAPIRVGFVGLNAAKGWAIKTHYPAILQLSSQFQITALYSPKIETSIATIQRLKLSNATAFPTLESFASSSTIDMIVIAIQVASHYEVVMPLLEFSKNNPNLKYLFVEWALACSLDQAESIYKAAAERGVQTIISLQGRKSPYILRAKELISQGYIGDINSIEIAGNGGWYGYERPVKSPKYIYEIGNGVDLVTTTFGHTIDILQYMTSSYFSRINAMVFNNIPEQELIDERGNRLGQRVPKTVPDHLLFQGTLLNGNVPVSCSFKGGKPTKKFTKNLVIDIHGTKGDLKLEGDAGFAEISNLVLYYSGTRANDFPLANGQQAPLDPGYDAGKEIMEVYHLRNYNAIVGNIHRLYQSISDFHFNTKKIPELPSQFVMQGFDFEGFPTLMDALILHRLIESVYKSNMMGSTLNVSNISHYSL
partner: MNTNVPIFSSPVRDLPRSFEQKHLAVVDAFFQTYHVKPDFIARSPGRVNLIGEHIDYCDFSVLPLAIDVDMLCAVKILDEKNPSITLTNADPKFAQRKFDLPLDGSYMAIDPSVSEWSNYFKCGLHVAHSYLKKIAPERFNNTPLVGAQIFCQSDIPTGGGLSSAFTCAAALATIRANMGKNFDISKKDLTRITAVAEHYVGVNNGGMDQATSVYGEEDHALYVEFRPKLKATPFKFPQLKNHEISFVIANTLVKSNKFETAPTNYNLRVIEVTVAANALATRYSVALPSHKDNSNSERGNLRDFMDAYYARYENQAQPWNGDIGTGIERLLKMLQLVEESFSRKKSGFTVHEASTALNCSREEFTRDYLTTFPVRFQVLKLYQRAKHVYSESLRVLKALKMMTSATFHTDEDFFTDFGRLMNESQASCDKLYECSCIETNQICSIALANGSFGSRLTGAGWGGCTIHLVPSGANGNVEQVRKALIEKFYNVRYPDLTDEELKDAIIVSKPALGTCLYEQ

Variants of: B1
Conditions: with gal3_yeast GAL3, P13045

Variant	effect of a mutation on the interaction
MDYNKRSSVSTVPNAAPIRVGFVGLNAAKGWAIKTHYPAILQLSSQFQITALYSPKIETSIATIQRLKLSNATAFPTLESFASSSTIDMIVIAIQVASHYEVVMPLLEFSKNNPNLKYLFVEWALACSLDQAESIYKAAAERGVQTIISLQGRKSPYILRAKELISQGYIGDINSIEIAGNGGWYGYERPVKSPKYIYEIGNGVDLVTTTFGHTIDILQYMTSSYFSRINAMVFNNIPEQELIDERGNRLGQRVPKTVPDHLLFQGTLLNGNVPVSCSFKGGKPTKKFTKNLVIDIHGTKGDLKLEGDAGFAEISNLVLYYSGTRANDFPLANGQQAPLDPGYDAGKEIMKVYHLRNYNAIVGNIHRLYQSISDFHFNTKKIPELPSQFVMQGFDFEGFPTLMDALILHRLIESVYKSNMMGSTLNVSNISHYSL [E351K]	decreasing interaction strength
